For series [1] the following is noted: rats; cited from earlier work.
For series [2] the following is noted: persons treated with up to 1,800 mg for 4 consecutive days; cited from earlier work.
Series [3] relates to NIH3T3 cells. The experiment in a line: cells. The class given is cell-based, mouse. To be noted: for IC50: Mus musculus, NIH3T3, 72 h, NIH3T3 cells, 72 hours; for toxicity with the addition of mPDGF-BB: complex with cot-duo or cot-duo-cot; for toxicity with the addition of mPDGF-BB / toxicity compared to control anti-HER2 x cotinine scFv-Cκ-scFv: NIH3T3, FIG. 5; for toxicity compared to control anti-HER2 x cotinine scFv-Cκ-scFv: complex with cotinine-duocarmycin, with or without mPDGF-BB. The procedure:
NIH3T3 cells were added to 50 μL of DMEM supplemented with 10% FBS and 1% penicillin/streptomycin, placed in a 96-well plate (CLS3595, Corning) and incubated overnight in 5% CO2 at 37° C. incubator. In each well containing 50 μL of cells, 50 μL of 50 anti-PDGFR-β x cotinine scFv-Cκ-scFv fusion protein (25.6 pM-2 μM) complexed with cot-duo or cot-duo-cot obtained in Experimental Example 10 was added and incubated for 72 hours in 5% CO2 at 37° C. incubator. To test mPDGF-BB on the toxic effect of the bispecific antibody of scFv-Cκ-scFv and the cotinine-duocarmycin complex, mPDGF-BB (2 nM) was added together with 50 μL of the bispecific antibody scFv-Cκ-scFv and the cotinine-duocarmycin complex. The mixed complexes were added to 50 μL of NIH3T3 cells.
The bispecific antibody of anti-HER2 x cotinine scFv-Cκ-scFv was used as a control. After 72 hours of incubation in the cells, 100 μL of Cell Titer-Glo reagents (Promega Corp., Madison, WI, USA) were added to all wells according to the manufacturer's instructions, and luminescence was measured in a luminometer (PerkinElmer, Waltham, MA, USA). The experiment was repeated 3 times. Relative viability was calculated with the following formula: [% viability=(luminescence of experimental well-luminescence of background well)/(luminescence of control-luminescence of background well)×100]. The wells containing only new medium were used as background wells.
To evaluate the toxicity of the complex of anti-mPDGFR-B x cotinine scFv-Cκ-scFv bispecific antibodies and cotinine duocarmycin (cot-duo, cot-duo-cot), the complexes were added to NIH3T3 cells in the presence/absence of mPDGF-BB. The ATP of the cells was measured for relative cell viability. The toxicity of the bispecific antibody of scFv-Cκ-scFv fusion antibody was shown by IC50 in Table 6 and FIG. 5.
It was carried out in the same manner as in Example 7, except that the bispecific antibody related with the anti-mPDGFR-β antibody and the bispecific antibody related with the anti-hPDGFR-β antibody prepared in Example 10 were used. FIG. 20a to FIG. 20b are graphs showing the difference in cytotoxic activity of PRb-CN01 and PRb-CN32 bispecific antibodies and cotinine-duocarmycin complexes in the cells expressing PDGFR-β. In FIG. 20b, an experiment was repeated in the presence of mPDGF-BB.

The conditions of series [4]: mice; conventional studies; cited from earlier work.
The target of the next series is PDGFR-β (Homo sapiens, UniProt P09619). To be noted: cited from earlier work.
For series [5] the following is noted: combination of Olaratumab and doxorubicin compared to doxorubicin alone; cited from earlier work.
The target of a further series is T1, mPDGFR-β (Mus musculus, UniProt P05622).
T1 construct: mPDGFR-β
T1 sequence (P05622 32-530): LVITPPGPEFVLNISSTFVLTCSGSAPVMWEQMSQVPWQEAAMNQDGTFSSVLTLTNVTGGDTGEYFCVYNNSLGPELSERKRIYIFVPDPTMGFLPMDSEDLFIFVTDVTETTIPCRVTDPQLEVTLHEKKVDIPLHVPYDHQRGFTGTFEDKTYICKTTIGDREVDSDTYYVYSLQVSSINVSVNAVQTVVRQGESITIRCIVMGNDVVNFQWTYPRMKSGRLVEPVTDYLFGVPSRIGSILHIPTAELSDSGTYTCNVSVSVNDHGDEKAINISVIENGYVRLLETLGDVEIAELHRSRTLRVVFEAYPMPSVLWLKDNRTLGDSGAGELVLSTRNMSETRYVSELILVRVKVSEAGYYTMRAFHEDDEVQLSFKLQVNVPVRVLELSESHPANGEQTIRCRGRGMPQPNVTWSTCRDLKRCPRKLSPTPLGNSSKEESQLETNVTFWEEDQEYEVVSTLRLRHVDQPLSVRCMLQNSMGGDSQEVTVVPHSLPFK
The experiment in a line: Competition enzyme immunoassay with mPDGF-BB. The class given is binding. Particulars: mPDGF-BB 100 nM; FIG. 4a. On the procedure: In order to confirm the competition between the bispecific antibody according to the present invention and mPDGF-BB, the microtiter plate was coated with mPDGFR-β-Fc chimera as mentioned above and then blocked. The microtiter plate was treated with various concentrations of the bispecific antibody (0.06 nM-1 μM) with or without addition of mPDGF-BB (100 nM), and then incubated at 37° C. for 2 hours. The washing, incubation, and detection were performed in the same manner as the enzyme immunoassay described above.
A competition enzyme immunoassay was developed to examine the effect of mPDGF-BB on the binding ability of anti-mPDGFR-β x cotinine scFv-Cκ-scFv fusion protein. The serially diluted bispecific antibodies (anti-mPDGFR-β scFv-Cκ-cotinine scFv) were incubated on wells coated with mPDGFR-β-Fc chimeric fusion protein with or without mPDGF-BB. HRP-anti-human Cκ antibody was incubated and then TMB was added. […] However, the binding ability of PRb-CN01 was not inhibited, so it confirmed that PRb-CN01 binds to mPDGFR-β in a noncompetitive manner to mPDGF-BB.

Series [6] relates to NIH3T3 cells. Nature of the series: Internalization analysis by confocal microscopy in NIH3T3 cells. To be noted: 10 μg/mL, 37° C., 30 minutes, FIG. 4c. The class given is cell-based, mouse. The procedure: The bispecific antibody of scFv-Cκ-scFv fusion protein was analyzed with a confocal microscope for visualizing internalization. NIH3T3 cells were treated with the bispecific antibody of scFv-Cκ-scFv (10 μg/mL) diluted in DMEM containing 10% FBS, and internalized at 37° C. for 30 minutes. After washing the cells 3 times with cold PBS, acidic buffer (0.2 M acetic acid, 0.5 M sodium chloride) was treated at room temperature for 5 minutes to remove the antibody bound to the cell surface. Cells were washed twice with cold PBS, fixed with 4% paraformaldehyde for 10 minutes, and then subjected to immunofluorescence staining as previously described [J. M. Lim et al., J. Cell. Biol. 210 (2015) 23].
Briefly, to block antibodies having non-specific reaction, cells were incubated in PBS containing 5% horse serum and 0.1% Triton X-100 for 30 minutes, and 2 μg/mL FITC-anti human Cκ antibody (TB28-2, BD Biosciences) was added at room temperature for 30 minutes. To image the initial endosomes, the cells were washed 3 times with PBS, incubated with PBS containing 5% horse serum and 0.1% Triton X-100 for 30 minutes, and then incubated with ati-RabS antibody diluted to 1:200 (C8B1, Cell Signaling Technology, Danvers, MA, USA). Alexa Fluor 546 goat anti-rabbit IgG (A-11035, Invitrogen) was sequentially treated. Cells were treated with 0.2 μg/mL DAPI to detect DNA. Confocal microscopy images were obtained using a Zeiss LSM 880 microscope, and images were analyzed with Zen software (Carl Zeiss, Thornwood, NY, USA).
To measure the cellular internalization of the bispecific antibody of scFv-Cκ-scFv, anti-mPDGFR-β x cotinine scFv-Cκ-scFv fusion protein was incubated in NIH3T3 cells, and then treated with FITC-anti-human Cκ antibody and endosome-specific antibody. It was imaged using a confocal microscope. […] When the images were merged, the present inventors confirmed that the fluorescence of the three antibody clones and the endosome-specific antibody were co-localized.

A further series addresses T2, mPDGFR-β and cotinine (Mus musculus, UniProt P05622).
T2 construct: mPDGFR-β
T2 sequence (P05622 32-530): T1 sequence (P05622 32-530)
Nature of the series: Enzyme immunoassay, simultaneous binding to cotinine and mPDGFR-β. To be noted: cotinine-BSA coated wells, then mPDGFR-β-Fc chimera; FIG. 3d. The procedure:
In order to confirm whether the bispecific antibody has simultaneous binding ability to both cotinine and mPDGFR-β, anti-mPDGFR-β x cotinine scFv-Cκ-scFv fusion protein was reacted in wells coated with cotinine-BSA. Washing was performed for each process, and mPDGFR-β-Fc chimeric protein and HRP-anti human Fc antibody were sequentially incubated.

Where a chain is given by its changes, count along the chain named. Where two headings read alike, the source gives them in different places.

Sequence of PDGFR-β (P09619 33-1106): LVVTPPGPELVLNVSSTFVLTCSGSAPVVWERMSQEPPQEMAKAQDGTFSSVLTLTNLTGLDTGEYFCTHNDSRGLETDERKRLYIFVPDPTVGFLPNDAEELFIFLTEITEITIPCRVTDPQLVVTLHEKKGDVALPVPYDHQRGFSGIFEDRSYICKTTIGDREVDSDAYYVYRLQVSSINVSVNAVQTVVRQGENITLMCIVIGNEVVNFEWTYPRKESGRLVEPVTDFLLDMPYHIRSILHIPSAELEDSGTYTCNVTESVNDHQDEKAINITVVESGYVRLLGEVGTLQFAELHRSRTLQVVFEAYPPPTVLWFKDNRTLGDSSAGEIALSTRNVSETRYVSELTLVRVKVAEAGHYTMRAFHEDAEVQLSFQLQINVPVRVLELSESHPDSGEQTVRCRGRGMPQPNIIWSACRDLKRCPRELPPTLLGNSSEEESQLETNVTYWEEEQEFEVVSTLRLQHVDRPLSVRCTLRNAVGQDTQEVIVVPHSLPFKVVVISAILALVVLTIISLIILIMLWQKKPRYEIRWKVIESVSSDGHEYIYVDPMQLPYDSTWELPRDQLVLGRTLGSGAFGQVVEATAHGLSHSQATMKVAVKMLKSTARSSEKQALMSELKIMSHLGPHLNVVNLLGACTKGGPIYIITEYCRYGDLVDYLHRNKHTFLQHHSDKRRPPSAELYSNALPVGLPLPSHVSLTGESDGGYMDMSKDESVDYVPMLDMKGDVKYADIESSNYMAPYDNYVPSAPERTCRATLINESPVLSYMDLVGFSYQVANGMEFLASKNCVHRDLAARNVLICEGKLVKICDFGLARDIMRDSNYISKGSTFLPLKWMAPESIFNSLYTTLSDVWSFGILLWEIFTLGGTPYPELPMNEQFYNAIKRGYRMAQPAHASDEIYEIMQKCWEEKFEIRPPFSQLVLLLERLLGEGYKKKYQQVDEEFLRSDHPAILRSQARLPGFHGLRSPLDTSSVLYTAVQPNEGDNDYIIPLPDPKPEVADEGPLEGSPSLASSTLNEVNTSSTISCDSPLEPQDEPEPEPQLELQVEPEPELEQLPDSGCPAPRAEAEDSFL

The term LD50 denotes the dose expected to kill half of the subjects tested. Consider `CN1C(=O)CC[C@H]1c1cccnc1` [Cotinine, cotinine], for which the LD50 in [1] is 4000 ± 100 mg/kg. Also, in [2], the adverse side effects result is given as “no adverse side effects were induced”.
As to `COC(=O)c1cc2c([nH]1)C(=O)C=C1N(C(=O)c3cc4cc(OC)c(OC)c(OC)c4[nH]3)C[C@H]3C[C@]123` [Free duocarmycin, duocarmycin, reference compound], the IC50 with NIH3T3 cells [3] (read-out: Cot-duo IC50 (nM), complex with cot-duo (DAR4), or conjugate/free drug alone, with mPDGF-BB (2 nM)) amounted to 23.8 nM; with NIH3T3 cells [3] (read-out: Cot-duo IC50 (nM), complex with cot-duo (DAR4), or conjugate/free drug alone, without mPDGF-BB), 9.7 nM; in the series on NIH3T3 cells [3] (read-out: Cot-duo-cot IC50 (nM), complex with cot-duo-cot (DAR2), or conjugate/free drug alone, with mPDGF-BB (2 nM)), 60.3 nM; in the series with NIH3T3 cells [3] (read-out: Cot-duo-cot IC50 (nM), complex with cot-duo-cot (DAR2), or conjugate/free drug alone, without mPDGF-BB) it was 35.7 nM. Besides, the weight loss entry in [4] is “induced significantly weight loss”.
Consider “Olaratumab: recombinant human IgG1 antibody against PDGFR-α”, for which the “cross-reactivity with PDGFR-β” value with PDGFR-β was “dose not cross-react with PDGFR-β”. In addition, the overall mean survival entry in series [5] is on record as “significantly improved overall mean survival compared to doxorubicin alone”.

B1: PRb-CC02: anti-mPDGFR-β scFv clone (VH SEQ ID NO 23, VL SEQ ID NO 24), tested as scFv-Cκ-anti-cotinine scFv bispecific antibody (antibody, V domains shown)
VH: AVTLDESGGGLQTPGGALSLVCKASGFTFSSYGMFWVRQAPGKGLEWVAGIDTGSGTNYGSAVKGRATISRDNGQSTVRLQLNNLRAEDTGTYFCTRGYAGTIDAWGHGTEVIVSSTS
VL: LTQPSSVSANPGETVKITCSGGGGSYGWYQQKSPGSAPVTVIYYNDKRPSDIPSRFSGSKSGSTGTLTITGVQAEDEAVYFCGSYNSSDSLFGAGTTLTVL
modifications: VH of PRb-CC02; VL of PRb-CC02
With B1, the “binding ability to mPDGFR-β in the presence of mPDGF-BB” value (shortened to “binding ability to mPDGFR-β”) with mPDGFR-β is listed as “inhibited in the presence of mPDGF-BB”. In the series with NIH3T3 cells [3], the “toxicity with the addition of mPDGF-BB” value is on record as “decreased with the addition of mPDGF-BB”; the “toxicity compared to control anti-HER2 x cotinine scFv-Cκ-scFv” value was “showed toxicity compared to the control antibody and the non-internalizing antibody (PRb-CC01), but did not show statistical significance”. Besides, the cellular internalization entry with NIH3T3 cells [6] is reported as “Intracellular fluorescence was detected”. Also, the “simultaneous binding to mPDGFR-β and cotinine” value (“simultaneous binding” for short) with mPDGFR-β and cotinine was “simultaneously bound to mPDGFR-β and cotinine”.

B2: PRb-CC03: anti-mPDGFR-β scFv clone (VH SEQ ID NO 31, VL SEQ ID NO 32), tested as scFv-Cκ-anti-cotinine scFv bispecific antibody (antibody, V domains shown)
VH: AVTLDESGGGLQTPGGTLSLVCKASGFTFSSYAMGWVRQAPGKGLEWVAGIDTAGGTAYGPAVKGRATISRDNGQSTVRLQLNNLRAEDTATYYCTRSSYIDTWGHGTEVIVSSTS
VL: B1 VL with G23T, G24Y, S25N, Y44W, F81Y, Y85S, N86D, D89G, S90L, L91I
modifications: VH of PRb-CC03; VL of PRb-CC03
Consider B2, for which the “binding ability to mPDGFR-β” value with mPDGFR-β is reported as “inhibited in the presence of mPDGF-BB”. For the same molecule, in the series with NIH3T3 cells [3], the “toxicity with the addition of mPDGF-BB” value is “decreased with the addition of mPDGF-BB”; the “toxicity compared to control anti-HER2 x cotinine scFv-Cκ-scFv” value was “showed toxicity compared to the control antibody and the non-internalizing antibody (PRb-CC01), but did not show statistical significance”. The cellular internalization result in the series with NIH3T3 cells [6] is on record as “Intracellular fluorescence was detected”. Also, the “simultaneous binding” value with mPDGFR-β and cotinine is “simultaneously bound to mPDGFR-β and cotinine”.

B3: PRb-CC01: anti-mPDGFR-β scFv clone (VH SEQ ID NO 15, VL SEQ ID NO 16), tested as scFv-Cκ-anti-cotinine scFv bispecific antibody (antibody, V domains shown)
VH: AVTLDESGGGLQTPGGALSLVCKGSGFTFSSYNMGWVRQAPGKGLEFVAGISAADNSTAYGAAVDGRATISRDNGQSTVRLQLNNLRAEDTATYFCIRGGGSIDAWGHGTEVIVSS
VL: LTQPSSVSANLGGTVKITCSGGGSYYGWYQQKSPGSAPVTLIYYNDKRPSDIPSRFSGSKSGSTGTLTITGVQAEDEAVYFCGAWDNSAGYAGFGAGTTLTVL
modifications: VH of PRb-CC01; VL of PRb-CC01
Regarding B3, the “binding ability to mPDGFR-β” value with mPDGFR-β is on record as “inhibited in the presence of mPDGF-BB”. The “toxicity with the addition of mPDGF-BB” value with NIH3T3 cells [3] was “decreased with the addition of mPDGF-BB”. The cellular internalization entry in the series on NIH3T3 cells [6] was “not internalized”. Moreover, in the series with mPDGFR-β and cotinine, the “simultaneous binding” value was “simultaneously bound to mPDGFR-β and cotinine”.

Values taken from patent US12098206B2, “PDGF receptor antibody and use thereof” (Seoul National University R&DB Foundation, priority 2018, dated 2024).
